Where “and” joins values, the source holds several entries; their conditions need not be identical. Equal values may be shown once.
Target: GST-LEDGF PWWP (1–100) (UniProt O75475)
Assay: pull-down

Chain of GST-LEDGF PWWP (1–100) (O75475 1-100): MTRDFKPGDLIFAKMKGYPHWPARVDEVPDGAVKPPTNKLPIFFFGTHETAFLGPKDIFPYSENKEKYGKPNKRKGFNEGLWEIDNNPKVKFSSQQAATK

Kd: 232 nM and 102 nM
Substance: native mononucleosomes (MNs) from SupT1 cells (from UniProt P0C0S8;P62807;P68431;P62805) (complex)

Reference: PMC3616739
